Common to all, as to conditions: source organism: Vibrio vulnificus YJ016
Experiment [1] addresses HLA-C*03:03. Put plainly: IEDB peptide-MHC binding, purified MHC/direct/fluorescence; filed as Kd, often an IC50 or EC50 that approximates it; ≥ and ≤ were set here for values at or beyond the usual limits of such assays.
In experiment [2] the target is HLA-A*03:01. The experiment can be described thus: IEDB peptide-MHC binding, purified MHC/competitive/fluorescence; filed as Kd, often an IC50 or EC50 that approximates it; ≥ and ≤ were set here for values at or beyond the usual limits of such assays.
The target of experiment [3] is HLA-B*15:42. The description is as above.
Experiment [4] addresses HLA-B*27:20. The description is as above.
For experiment [5], the target named is HLA-B*40:13. Described as above.
In experiment [6] the target is HLA-B*45:06. Described as above.
In experiment [7] the target is HLA-B*83:01. The experiment is described as above.
The target of experiment [8] is HLA-C*04:01. The experiment is described as above.
Experiment [9] has as its target HLA-C*06:02. The experiment is described as above.
Experiment [10] addresses HLA-C*14:02. The description is as above.

As usually defined, the Kd is the constant that tells how readily two partners part at equilibrium. Consider KMFNRASYF, for which the Kd in experiment [1] was 2720 nM; in experiment [2], 4.8 nM; in experiment [3], not below 5000 nM; in experiment [4], 1.2 nM; in [5] it was 2.4 nM; in experiment [6], not below 5000 nM. For the same sequence, the dissociation constant (Kd) in experiment [7] was not below 5000 nM; in [8] it was 304 nM; in [9] it was 68 nM; in experiment [10], 4 nM.

(Values after the Immune Epitope Database (IEDB).)
